Measured values published in the supplement of paper PMC12042874.
± gives the uncertainty stated by the source.

Assay: amyloid nucleation score (Sup35N fusion, yeast selection) (log enrichment); library NNK2; higher = more nucleation; inactive = no reads after selection
Method in brief: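 Yeast lacking psi expressed peptides of 20 random codons fused to Sup35N, received 100 μM copper sulfate for 24 hours, and were then grown for 7 days at 30°C on medium lacking adenine and uracil. Illumina sequencing of input and output plasmid inserts provided the reads. Nucleation scores are DiMSum log enrichments of output over input, centred on the mode of non-aggregating sequences. Any sequence with under 100 input reads was excluded.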

Substance | amyloid nucleation score
LFMRPCDLFEVVLSTVRLVW | 1.29 ± 0.52
LFNVMLCMP | 4.17 ± 0.048
LFRCELSLGRHMGFLDWEWG | 0.201 ± 0.38
LFRFYCMIANCIVLQN | 4.93 ± 0.045
LFRLSCIALCVGIIIVSDGV | -0.33 ± 0.79
LFRSHSCVCTLVKQ | -0.008 ± 0.46
LFRVMILC | -0.239 ± 0.42
LFSLTGIKLE | -0.483 ± 1.1
LFSSQLTATVRVPMSRNGLW | 7.088 ± 0.031
LFTEISKYQVYGVYWTALFE | -0.137 ± 1.1
LFTVYFKK | -0.6 ± 0.63
LFVCNSMP | 0.35 ± 0.8
LFVHYFSVGYSHLLCRDCTS | 3.23 ± 0.1
LFYAAEYKLCMEV | -0.857 ± 0.41
LFYRYFLCVTRRTNEYGVL | -1.75 ± 1
LGDAHALCGRLTVCRGGTGP | 3.58 ± 0.075
LGFFKSGVVH | inactive
LGFWL | -1.31 ± 0.41
LGGLSDVFQNRPLMTYGAWS | -0.303 ± 0.35
LGIKRNQI | -0.812 ± 0.45
LGIYVFAFKRMVNMEDLYTR | -1.05 ± 0.41
LGNTRSIWGE | 0.578 ± 0.27

Substance | amyloid nucleation score
LGPAYYYHNYLNLRGLSSGM | 0.504 ± 0.74
LGPLVYFLFVNIPNQGFFLC | 1.56 ± 0.16
LGRWASGTAG | 0.558 ± 0.57
LGSVVSTPFCYSMFRTFKKH | 0.109 ± 0.27
LGVESTCRSWFMFLGTQRIA | -0.342 ± 1
LGWINKWKRLSNIPIAKWHC | inactive
LGYGRWCKVARPEYESGLTM | 0.042 ± 1.1
LHAIHSFDWPTSLIVYHP | inactive
LHFQYERSWNARSTLM | 4.08 ± 0.076
LHFSGFTKFRFIMVFGKKVC | -1.24 ± 0.49
LHGVSAIMLGTIGARVN | -0.125 ± 0.49
LHIKW | 5.728 ± 0.033
LHKISIGKCSRCSCRNTFGE | -0.171 ± 1
LHLEMTEW | inactive
LHNMNWPLFVLVACLVDIPT | -0.724 ± 0.42
LHPLVSLVVHTFMPEVRLVL | inactive
LHRKWFGYGCTCSWIGWEEW | -0.002 ± 0.48
LHSRFL | 0.236 ± 1.1
LHTLVALINACRNASGSVHD | 0.167 ± 0.65
LIAGYDAWWSSKMSRHKVSV | -0.232 ± 0.27
LICAL | 0.61 ± 0.39
LICSHTLIRVYVKFF | 1.16 ± 0.3

Substance | amyloid nucleation score
LIDNFS | -0.351 ± 0.45
LIFGAKLESGYASVEFSDSD | -0.347 ± 1
LIGAATSKNVIRCNGWDGDQ | 0.848 ± 0.57
LIGDSLSVVRNRNFPPARGK | -0.237 ± 1
LIGEVAYFICHFSKVVARLF | 2.06 ± 0.075
LIIQRLEGAF | -0.245 ± 0.32
LIKVVVMS | 1.04 ± 0.42
LILLFLTAQRLCLVSDEESE | -0.409 ± 0.41
LIMLASSLWTRKGGDTST | 6.292 ± 0.053
LIMYGTKLSRLVMLLYYWTW | 0.031 ± 0.34
LINPCVRLWLCNCIFTFESA | 7.872 ± 0.027
LINVMLS | inactive
LIRPSLPSS | 0.807 ± 0.28
LIRVYRKVGLVTLLHGMNRM | 0.039 ± 0.32
LIVGAIASLHHTLQVNGSPN | 4.59 ± 0.11
LIVWT | 0.593 ± 0.54
LIWVRGNEGRFGGRLVLVVE | inactive
LKCSFAVTDAWIGNRRAQRQ | 1 ± 0.2
LKITRRSALV | 0.186 ± 0.76
LKNLGYNMSPMYHWHCSSSK | -0.003 ± 1.1
LKPSSFVYIITDQFSNHIVM | 5.84 ± 0.065
LKQTGQLRVMSN | 0.039 ± 0.79

Substance | amyloid nucleation score
LKRGYSFMRCLGVWRFQEPD | -0.158 ± 0.25
LKRNMWFLYRGTFARSYYAN | -1.03 ± 0.55
LKSSWPFDVKKAYKCYVKFA | 0.006 ± 0.65
LKTACVDALLH | 0.258 ± 0.26
LKWRVRWAIKED | 0.547 ± 0.21
LLCSPEGVYGKCTGGFRQTL | 0.581 ± 0.39
LLDLALRLTMGLITKHEANK | 3.61 ± 0.064
LLDYLYDIGRHTKGK | -0.337 ± 1.1
LLEVGSKKCGHPLSTYSKAN | 0.463 ± 0.48
LLEYNIFLRSIVFDGREEWA | 3.18 ± 0.058
LLFCKPDAHFVLCSFYPLML | inactive
LLFINGHAMTGAVYTITKLT | -0.302 ± 0.36
LLFTLGNGGFSLRYKK | -0.265 ± 0.23
LLFVLAKGNKTCSTPCIEIH | -0.628 ± 0.27
LLGAGLSITMWDGPQL | 0.654 ± 0.23
LLGARDFGWGLHGLLGYRLG | 0.123 ± 0.56
LLGSLLIFPMES | -1.52 ± 0.78
LLICDSMHHTM | 0.275 ± 0.48
LLKTSASCIMHGEKQKWMLA | 0.671 ± 0.64
LLLILTL | 0.21 ± 1
LLLSFTCLRHTGWFFIRRCC | -0.631 ± 0.41
